Results published in paper PMC11773478.

B1: EPHA1: N414A (protein)
parent chain: MERRWPLGLGLVLLLCAPLPPGARAKEVTLMDTSKAQGELGWLLDPPKDGWSEQQQILNGTPLYMYQDCPMQGRRDTDHWLRSNWIYRGEEASRVHVELQFTVRDCKSFPGGAGPLGCKETFNLLYMESDQDVGIQLRRPLFQKVTTVAADQSFTIRDLVSGSVKLNVERCSLGRLTRRGLYLAFHNPGACVALVSVRVFYQRCPETLNGLAQFPDTLPGPAGLVEVAGTCLPHARASPRPSGAPRMHCSPDGEWLVPVGRCHCEPGYEEGGSGEACVACPSGSYRMDMDTPHCLTCPQQSTAESEGATICTCESGHYRAPGEGPQVACTGPPSAPRNLSFSASGTQLSLRWEPPADTGGRQDVRYSVRCSQCQGTAQDGGPCQPCGVGVHFSPGARGLTTPAVHVNGLEPYANYTFNVEAQNGVSGLGSSGHASTSVSISMGHAESLSGLSLRLVKKEPRQLELTWAGSRPRSPGANLTYELHVLNQDEERYQMVLEPRVLLTELQPDTTYIVRVRMLTPLGPGPFSPDHEFRTSPPVSRGLTGGEIVAVIFGLLLGAALLLGILVFRSRRAQRQRQQRQRDRATDVDREDKLWLKPYVDLQAYEDPAQGALDFTRELDPAWLMVDTVIGEGEFGEVYRGTLRLPSQDCKTVAIKTLKDTSPGGQWWNFLREATIMGQFSHPHILHLEGVVTKRKPIMIITEFMENGALDAFLREREDQLVPGQLVAMLQGIASGMNYLSNHNYVHRDLAARNILVNQNLCCKVSDFGLTRLLDDFDGTYETQGGKIPIRWTAPEAIAHRIFTTASDVWSFGIVMWEVLSFGDKPYGEMSNQEVMKSIEDGYRLPPPVDCPAPLYELMKNCWAYDRARRPHFQKLQAHLEQLLANPHSLRTIANFDPRMTLRLPSLSGSDGIPYRTVSEWLESIRMKRYILHFHSAGLDTMECVLELTAEDLTQMGITLPGHQKRILCSIQGFKD
B2: EPHA1: N414A-N478A (protein)
parent chain: MERRWPLGLGLVLLLCAPLPPGARAKEVTLMDTSKAQGELGWLLDPPKDGWSEQQQILNGTPLYMYQDCPMQGRRDTDHWLRSNWIYRGEEASRVHVELQFTVRDCKSFPGGAGPLGCKETFNLLYMESDQDVGIQLRRPLFQKVTTVAADQSFTIRDLVSGSVKLNVERCSLGRLTRRGLYLAFHNPGACVALVSVRVFYQRCPETLNGLAQFPDTLPGPAGLVEVAGTCLPHARASPRPSGAPRMHCSPDGEWLVPVGRCHCEPGYEEGGSGEACVACPSGSYRMDMDTPHCLTCPQQSTAESEGATICTCESGHYRAPGEGPQVACTGPPSAPRNLSFSASGTQLSLRWEPPADTGGRQDVRYSVRCSQCQGTAQDGGPCQPCGVGVHFSPGARGLTTPAVHVNGLEPYANYTFNVEAQNGVSGLGSSGHASTSVSISMGHAESLSGLSLRLVKKEPRQLELTWAGSRPRSPGANLTYELHVLNQDEERYQMVLEPRVLLTELQPDTTYIVRVRMLTPLGPGPFSPDHEFRTSPPVSRGLTGGEIVAVIFGLLLGAALLLGILVFRSRRAQRQRQQRQRDRATDVDREDKLWLKPYVDLQAYEDPAQGALDFTRELDPAWLMVDTVIGEGEFGEVYRGTLRLPSQDCKTVAIKTLKDTSPGGQWWNFLREATIMGQFSHPHILHLEGVVTKRKPIMIITEFMENGALDAFLREREDQLVPGQLVAMLQGIASGMNYLSNHNYVHRDLAARNILVNQNLCCKVSDFGLTRLLDDFDGTYETQGGKIPIRWTAPEAIAHRIFTTASDVWSFGIVMWEVLSFGDKPYGEMSNQEVMKSIEDGYRLPPPVDCPAPLYELMKNCWAYDRARRPHFQKLQAHLEQLLANPHSLRTIANFDPRMTLRLPSLSGSDGIPYRTVSEWLESIRMKRYILHFHSAGLDTMECVLELTAEDLTQMGITLPGHQKRILCSIQGFKD
B3: EPHA1: N478A (protein)
parent chain: MERRWPLGLGLVLLLCAPLPPGARAKEVTLMDTSKAQGELGWLLDPPKDGWSEQQQILNGTPLYMYQDCPMQGRRDTDHWLRSNWIYRGEEASRVHVELQFTVRDCKSFPGGAGPLGCKETFNLLYMESDQDVGIQLRRPLFQKVTTVAADQSFTIRDLVSGSVKLNVERCSLGRLTRRGLYLAFHNPGACVALVSVRVFYQRCPETLNGLAQFPDTLPGPAGLVEVAGTCLPHARASPRPSGAPRMHCSPDGEWLVPVGRCHCEPGYEEGGSGEACVACPSGSYRMDMDTPHCLTCPQQSTAESEGATICTCESGHYRAPGEGPQVACTGPPSAPRNLSFSASGTQLSLRWEPPADTGGRQDVRYSVRCSQCQGTAQDGGPCQPCGVGVHFSPGARGLTTPAVHVNGLEPYANYTFNVEAQNGVSGLGSSGHASTSVSISMGHAESLSGLSLRLVKKEPRQLELTWAGSRPRSPGANLTYELHVLNQDEERYQMVLEPRVLLTELQPDTTYIVRVRMLTPLGPGPFSPDHEFRTSPPVSRGLTGGEIVAVIFGLLLGAALLLGILVFRSRRAQRQRQQRQRDRATDVDREDKLWLKPYVDLQAYEDPAQGALDFTRELDPAWLMVDTVIGEGEFGEVYRGTLRLPSQDCKTVAIKTLKDTSPGGQWWNFLREATIMGQFSHPHILHLEGVVTKRKPIMIITEFMENGALDAFLREREDQLVPGQLVAMLQGIASGMNYLSNHNYVHRDLAARNILVNQNLCCKVSDFGLTRLLDDFDGTYETQGGKIPIRWTAPEAIAHRIFTTASDVWSFGIVMWEVLSFGDKPYGEMSNQEVMKSIEDGYRLPPPVDCPAPLYELMKNCWAYDRARRPHFQKLQAHLEQLLANPHSLRTIANFDPRMTLRLPSLSGSDGIPYRTVSEWLESIRMKRYILHFHSAGLDTMECVLELTAEDLTQMGITLPGHQKRILCSIQGFKD

Assay: cell surface biotinylation, streptavidin pull-down, EPHA1 immunoblot
Settings: glycan lost; control: wild type

**Q.** Which localisation_or_trafficking does the source give for B1 here?
**A.** decreases

**Q.** For B2, which localisation_or_trafficking is on record?
**A.** decreases

**Q.** For B3, which localisation_or_trafficking is on record?
**A.** decreases
